{
  "source": "patent US20140072613A1",
  "about": "“Compositions and Methods for Treating Cutaneous Scarring” (priority 2012, published 2014)",
  "experiment_in_all_cases": "cell-based or functional assay",
  "key": {"BTK(R28H)(h) (human)": {"target": "BTK(R28H)(h) (human) (UniProt Q06187)", "sequence (Q06187 whole entry R28H)": "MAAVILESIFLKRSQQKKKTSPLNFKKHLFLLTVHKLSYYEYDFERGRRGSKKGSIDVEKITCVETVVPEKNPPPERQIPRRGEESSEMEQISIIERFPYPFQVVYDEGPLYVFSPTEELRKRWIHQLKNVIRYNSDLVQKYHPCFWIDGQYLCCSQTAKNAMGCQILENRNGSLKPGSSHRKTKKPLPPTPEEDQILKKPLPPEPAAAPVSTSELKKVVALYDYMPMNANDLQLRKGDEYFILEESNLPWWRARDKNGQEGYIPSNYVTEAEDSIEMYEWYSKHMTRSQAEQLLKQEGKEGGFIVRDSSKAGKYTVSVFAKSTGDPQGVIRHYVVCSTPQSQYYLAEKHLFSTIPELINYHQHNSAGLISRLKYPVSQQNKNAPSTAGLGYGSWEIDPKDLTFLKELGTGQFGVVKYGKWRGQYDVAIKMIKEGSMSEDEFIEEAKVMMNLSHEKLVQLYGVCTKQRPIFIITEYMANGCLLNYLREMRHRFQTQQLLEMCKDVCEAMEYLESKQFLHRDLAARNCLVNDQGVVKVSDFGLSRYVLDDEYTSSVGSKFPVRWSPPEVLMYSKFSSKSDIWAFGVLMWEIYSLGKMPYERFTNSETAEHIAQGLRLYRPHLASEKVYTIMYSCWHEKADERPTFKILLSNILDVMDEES"}, "BrSK2(h) (human)": {"target": "T1, BrSK2(h) (human) (UniProt Q8IWQ3)", "T1 sequence (looked up)": "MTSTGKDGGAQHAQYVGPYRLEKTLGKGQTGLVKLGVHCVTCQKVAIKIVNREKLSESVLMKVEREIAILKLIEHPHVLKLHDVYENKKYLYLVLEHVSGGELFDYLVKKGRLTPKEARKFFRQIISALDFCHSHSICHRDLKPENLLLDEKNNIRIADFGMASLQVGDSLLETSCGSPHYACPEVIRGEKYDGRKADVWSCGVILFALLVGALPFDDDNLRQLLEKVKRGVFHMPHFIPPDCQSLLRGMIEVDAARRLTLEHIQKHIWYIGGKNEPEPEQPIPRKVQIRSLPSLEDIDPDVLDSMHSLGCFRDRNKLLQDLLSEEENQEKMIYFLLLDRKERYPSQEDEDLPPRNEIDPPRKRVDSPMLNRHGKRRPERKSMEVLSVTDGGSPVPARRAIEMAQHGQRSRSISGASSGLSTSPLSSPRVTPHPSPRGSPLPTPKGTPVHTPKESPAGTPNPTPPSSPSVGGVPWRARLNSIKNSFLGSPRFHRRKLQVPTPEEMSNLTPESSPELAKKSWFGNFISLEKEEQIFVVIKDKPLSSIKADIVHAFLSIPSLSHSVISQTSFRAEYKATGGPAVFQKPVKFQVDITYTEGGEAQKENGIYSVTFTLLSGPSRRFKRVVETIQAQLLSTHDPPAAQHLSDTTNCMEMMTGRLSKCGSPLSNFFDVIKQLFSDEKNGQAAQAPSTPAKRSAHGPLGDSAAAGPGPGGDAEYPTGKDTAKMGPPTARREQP"}, "CDK1/cyclinB(h) (human)": {"target": "CDK1/cyclinB(h) (human) (UniProt P06493)", "sequence (P06493 whole entry, chain 1 of 2)": "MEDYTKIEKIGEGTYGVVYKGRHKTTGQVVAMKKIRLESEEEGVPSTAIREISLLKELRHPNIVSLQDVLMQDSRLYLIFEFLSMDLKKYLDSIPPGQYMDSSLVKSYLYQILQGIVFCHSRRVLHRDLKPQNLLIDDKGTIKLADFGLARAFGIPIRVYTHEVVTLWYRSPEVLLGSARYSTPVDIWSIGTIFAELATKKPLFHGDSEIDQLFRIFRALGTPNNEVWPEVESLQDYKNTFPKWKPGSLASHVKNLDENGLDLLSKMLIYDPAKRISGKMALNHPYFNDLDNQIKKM", "sequence (P14635 whole entry, chain 2 of 2, further chain)": "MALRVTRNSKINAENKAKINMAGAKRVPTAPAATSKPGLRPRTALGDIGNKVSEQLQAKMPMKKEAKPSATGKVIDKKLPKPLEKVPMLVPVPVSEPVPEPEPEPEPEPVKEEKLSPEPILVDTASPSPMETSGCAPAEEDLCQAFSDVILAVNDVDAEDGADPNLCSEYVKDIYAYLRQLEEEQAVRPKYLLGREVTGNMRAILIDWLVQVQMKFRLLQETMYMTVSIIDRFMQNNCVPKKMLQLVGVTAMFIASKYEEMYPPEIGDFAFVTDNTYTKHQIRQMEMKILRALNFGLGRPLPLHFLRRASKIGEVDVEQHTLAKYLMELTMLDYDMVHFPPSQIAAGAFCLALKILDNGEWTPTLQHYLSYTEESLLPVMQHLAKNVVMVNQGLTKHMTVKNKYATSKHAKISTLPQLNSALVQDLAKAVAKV"}, "CaMKI(h) (human)": {"target": "CaMKI(h) (human) (UniProt Q14012)", "sequence (Q14012 whole entry)": "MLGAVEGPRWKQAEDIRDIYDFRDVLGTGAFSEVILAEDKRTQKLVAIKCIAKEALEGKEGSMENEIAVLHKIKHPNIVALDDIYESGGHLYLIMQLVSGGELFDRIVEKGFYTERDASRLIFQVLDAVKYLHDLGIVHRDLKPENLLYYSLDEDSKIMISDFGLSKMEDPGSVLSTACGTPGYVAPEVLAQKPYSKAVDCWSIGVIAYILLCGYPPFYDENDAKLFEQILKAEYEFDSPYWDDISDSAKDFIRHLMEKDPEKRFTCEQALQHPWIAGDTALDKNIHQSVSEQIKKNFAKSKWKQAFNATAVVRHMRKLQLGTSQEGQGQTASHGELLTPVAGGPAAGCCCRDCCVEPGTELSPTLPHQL"}, "EGFR(h) (human)": {"target": "EGFR(h) (human) (UniProt P00533)"}, "FGFR4(h) (human)": {"target": "FGFR4(h) (human) (UniProt P22455)", "sequence (P22455 460-802 limits assumed)": "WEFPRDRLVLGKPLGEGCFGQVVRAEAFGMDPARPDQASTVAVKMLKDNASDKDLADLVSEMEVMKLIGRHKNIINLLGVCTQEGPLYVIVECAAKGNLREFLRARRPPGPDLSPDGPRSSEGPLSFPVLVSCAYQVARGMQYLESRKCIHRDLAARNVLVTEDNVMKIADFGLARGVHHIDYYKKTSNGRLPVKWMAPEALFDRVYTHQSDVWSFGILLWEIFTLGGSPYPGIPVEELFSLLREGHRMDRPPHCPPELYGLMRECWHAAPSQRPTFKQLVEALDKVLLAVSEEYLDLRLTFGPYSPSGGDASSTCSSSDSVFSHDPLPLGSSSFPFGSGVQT"}, "Itk(h) (human)": {"target": "T2, Itk(h) (human) (UniProt Q08881)", "T2 sequence (looked up)": "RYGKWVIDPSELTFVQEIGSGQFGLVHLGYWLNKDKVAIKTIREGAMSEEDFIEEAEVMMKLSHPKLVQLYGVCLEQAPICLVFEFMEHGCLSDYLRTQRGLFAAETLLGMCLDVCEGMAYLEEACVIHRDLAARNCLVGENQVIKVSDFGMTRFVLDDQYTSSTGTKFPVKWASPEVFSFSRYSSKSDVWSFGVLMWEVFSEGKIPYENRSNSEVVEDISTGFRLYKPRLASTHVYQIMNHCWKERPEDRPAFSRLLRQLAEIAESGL"}, "JAK2(h) (human)": {"target": "JAK2(h) (human) (UniProt O60674)", "sequence (O60674 808-1132 limits assumed)": "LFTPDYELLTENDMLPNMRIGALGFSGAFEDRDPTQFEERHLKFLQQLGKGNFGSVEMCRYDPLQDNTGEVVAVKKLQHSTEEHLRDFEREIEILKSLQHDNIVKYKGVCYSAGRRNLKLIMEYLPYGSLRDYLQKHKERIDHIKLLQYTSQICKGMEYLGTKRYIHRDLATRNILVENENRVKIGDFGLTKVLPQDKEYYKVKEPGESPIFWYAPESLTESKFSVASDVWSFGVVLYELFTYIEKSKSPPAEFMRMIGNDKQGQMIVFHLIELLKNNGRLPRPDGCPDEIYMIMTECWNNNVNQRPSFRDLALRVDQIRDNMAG"}, "MARK1(h) (human)": {"target": "MARK1(h) (human) (UniProt Q9P0L2)"}, "NEK7(h) (human)": {"target": "NEK7(h) (human) (UniProt Q8TDX7)", "sequence (Q8TDX7 whole entry)": "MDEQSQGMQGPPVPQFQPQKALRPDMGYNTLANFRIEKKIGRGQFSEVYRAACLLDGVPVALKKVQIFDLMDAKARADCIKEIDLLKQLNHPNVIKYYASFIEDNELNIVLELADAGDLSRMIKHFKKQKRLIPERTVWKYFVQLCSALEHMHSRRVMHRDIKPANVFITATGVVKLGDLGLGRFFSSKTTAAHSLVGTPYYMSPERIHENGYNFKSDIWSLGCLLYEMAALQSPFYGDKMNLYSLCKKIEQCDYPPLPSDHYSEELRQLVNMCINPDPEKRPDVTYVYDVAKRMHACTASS"}, "PAR-1Bα(h) (human)": {"target": "PAR-1Bα(h) (human) (UniProt Q7KZI7)", "sequence (Q7KZI7 other isoform, or with tags, fused parts or gaps limits assumed)": "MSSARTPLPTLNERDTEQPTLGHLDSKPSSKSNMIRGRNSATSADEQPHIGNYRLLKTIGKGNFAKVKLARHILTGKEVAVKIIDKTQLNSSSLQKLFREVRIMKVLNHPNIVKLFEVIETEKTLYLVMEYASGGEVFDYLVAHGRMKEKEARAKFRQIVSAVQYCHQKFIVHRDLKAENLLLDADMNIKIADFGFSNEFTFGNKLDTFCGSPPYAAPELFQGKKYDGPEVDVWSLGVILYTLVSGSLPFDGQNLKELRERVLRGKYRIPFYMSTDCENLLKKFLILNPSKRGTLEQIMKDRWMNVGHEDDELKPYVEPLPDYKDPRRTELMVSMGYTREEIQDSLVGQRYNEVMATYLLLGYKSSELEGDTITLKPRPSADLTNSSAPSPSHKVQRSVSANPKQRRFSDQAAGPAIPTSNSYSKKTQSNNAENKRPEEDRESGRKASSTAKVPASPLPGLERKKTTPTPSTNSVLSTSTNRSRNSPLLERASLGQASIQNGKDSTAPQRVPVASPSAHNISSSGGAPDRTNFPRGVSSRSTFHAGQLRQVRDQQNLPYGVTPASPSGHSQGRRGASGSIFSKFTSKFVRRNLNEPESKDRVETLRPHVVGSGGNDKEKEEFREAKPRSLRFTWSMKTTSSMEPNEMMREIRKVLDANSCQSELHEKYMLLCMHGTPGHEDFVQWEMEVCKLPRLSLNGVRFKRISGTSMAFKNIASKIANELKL"}, "RIPK2(h) (human)": {"target": "RIPK2(h) (human) (UniProt O43353)", "sequence (O43353 1-299 limits assumed)": "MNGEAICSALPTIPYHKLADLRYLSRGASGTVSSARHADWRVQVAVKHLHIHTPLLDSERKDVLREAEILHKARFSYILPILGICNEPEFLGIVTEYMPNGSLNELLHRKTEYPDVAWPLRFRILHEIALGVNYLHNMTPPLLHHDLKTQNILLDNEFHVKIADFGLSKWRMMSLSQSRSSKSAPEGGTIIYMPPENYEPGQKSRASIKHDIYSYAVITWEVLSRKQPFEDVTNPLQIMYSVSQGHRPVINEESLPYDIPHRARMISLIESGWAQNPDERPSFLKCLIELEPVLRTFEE"}, "ROCK-II(h) (human)": {"target": "ROCK-II(h) (human) (UniProt O75116)", "sequence (O75116 11-552 limits assumed)": "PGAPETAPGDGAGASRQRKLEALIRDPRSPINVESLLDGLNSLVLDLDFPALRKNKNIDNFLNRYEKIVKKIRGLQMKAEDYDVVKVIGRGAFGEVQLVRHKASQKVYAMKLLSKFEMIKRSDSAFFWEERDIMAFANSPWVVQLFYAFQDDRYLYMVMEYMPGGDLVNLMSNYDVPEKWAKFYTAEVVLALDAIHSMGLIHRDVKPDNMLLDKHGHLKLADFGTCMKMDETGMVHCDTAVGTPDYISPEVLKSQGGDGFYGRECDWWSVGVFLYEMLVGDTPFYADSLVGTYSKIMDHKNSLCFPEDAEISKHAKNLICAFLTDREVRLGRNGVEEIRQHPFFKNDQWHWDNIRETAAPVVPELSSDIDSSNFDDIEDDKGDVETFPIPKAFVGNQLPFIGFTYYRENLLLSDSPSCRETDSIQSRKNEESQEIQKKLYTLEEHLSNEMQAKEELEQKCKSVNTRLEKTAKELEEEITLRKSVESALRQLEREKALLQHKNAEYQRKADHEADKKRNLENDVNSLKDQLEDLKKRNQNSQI"}, "SGK(h) (human)": {"target": "SGK(h) (human) (UniProt O00141)"}, "STK33(h) (human)": {"target": "STK33(h) (human) (UniProt Q9BYT3)"}, "Syk(h) (human)": {"target": "Syk(h) (human) (UniProt P43405)"}, "Tie2(Y897S)(h) (human)": {"target": "Tie2(Y897S)(h) (human) (UniProt Q02763)"}, "ULK2(h) (human)": {"target": "T3, ULK2(h) (human) (UniProt Q8IYT8)", "T3 sequence (looked up)": "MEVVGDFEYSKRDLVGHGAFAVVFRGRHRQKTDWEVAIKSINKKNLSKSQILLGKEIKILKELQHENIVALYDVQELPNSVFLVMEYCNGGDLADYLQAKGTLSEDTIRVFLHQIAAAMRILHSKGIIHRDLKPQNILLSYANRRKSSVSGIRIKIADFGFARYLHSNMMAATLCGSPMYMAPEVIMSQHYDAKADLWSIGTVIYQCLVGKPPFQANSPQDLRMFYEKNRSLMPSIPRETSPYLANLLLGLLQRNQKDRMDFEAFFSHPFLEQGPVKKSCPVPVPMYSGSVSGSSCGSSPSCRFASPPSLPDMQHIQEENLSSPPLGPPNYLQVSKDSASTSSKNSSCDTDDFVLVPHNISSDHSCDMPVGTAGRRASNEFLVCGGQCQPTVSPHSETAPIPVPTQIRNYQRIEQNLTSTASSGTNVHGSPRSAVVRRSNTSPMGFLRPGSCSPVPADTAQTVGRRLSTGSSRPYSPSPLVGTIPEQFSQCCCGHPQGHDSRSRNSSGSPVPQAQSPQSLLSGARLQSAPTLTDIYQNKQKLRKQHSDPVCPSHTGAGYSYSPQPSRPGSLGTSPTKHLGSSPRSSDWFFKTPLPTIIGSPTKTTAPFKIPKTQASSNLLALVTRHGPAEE"}, "c-RAF(h) (human)": {"target": "c-RAF(h) (human) (UniProt P04049)"}, "cKit(h) (human)": {"target": "cKit(h) (human) (UniProt P10721)", "sequence (P10721 544-976)": "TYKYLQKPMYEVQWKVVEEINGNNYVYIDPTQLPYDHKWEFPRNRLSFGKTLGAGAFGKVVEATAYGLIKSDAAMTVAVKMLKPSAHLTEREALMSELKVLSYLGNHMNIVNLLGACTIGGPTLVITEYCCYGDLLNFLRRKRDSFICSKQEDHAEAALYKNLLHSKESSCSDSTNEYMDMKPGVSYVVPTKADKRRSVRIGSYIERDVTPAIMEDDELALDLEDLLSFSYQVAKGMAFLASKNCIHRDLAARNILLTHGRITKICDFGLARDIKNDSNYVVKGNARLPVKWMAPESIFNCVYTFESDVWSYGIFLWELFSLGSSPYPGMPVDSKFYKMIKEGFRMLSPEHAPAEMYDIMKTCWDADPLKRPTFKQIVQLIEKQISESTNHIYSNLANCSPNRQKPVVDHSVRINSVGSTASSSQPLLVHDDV"}},
  "data": [
    {"substance": "MMI-0500 (peptide)", "values": [
      {"measurement": "% activity, 100 µM", "setting": "BTK(R28H)(h) (human)", "result": 10, "unit": "%"},
      {"measurement": "% activity, 100 µM", "setting": "BrSK2(h) (human)", "result": 84, "unit": "%"},
      {"measurement": "% activity, 100 µM", "setting": "CDK1/cyclinB(h) (human)", "result": 57, "unit": "%"},
      {"measurement": "% activity, 100 µM", "setting": "CaMKI(h) (human)", "result": -1, "unit": "%"},
      {"measurement": "inhibition of kinase activity at 100 µM", "setting": "CaMKI(h) (human)", "result": "> 65", "unit": "%"},
      {"measurement": "% activity, 100 µM", "setting": "EGFR(h) (human)", "result": -1, "unit": "%"},
      {"measurement": "% activity, 100 µM", "setting": "FGFR4(h) (human)", "result": 3, "unit": "%"},
      {"measurement": "% activity, 100 µM", "setting": "Itk(h) (human)", "result": 7, "unit": "%"},
      {"measurement": "% activity, 100 µM", "setting": "JAK2(h) (human)", "result": 49, "unit": "%"},
      {"measurement": "% activity, 100 µM", "setting": "MARK1(h) (human)", "result": 110, "unit": "%"},
      {"measurement": "% activity, 100 µM", "setting": "NEK7(h) (human)", "result": 89, "unit": "%"},
      {"measurement": "% activity, 100 µM", "setting": "PAR-1Bα(h) (human)", "result": 97, "unit": "%"},
      {"measurement": "% activity, 100 µM", "setting": "RIPK2(h) (human)", "result": 30, "unit": "%"},
      {"measurement": "% activity, 100 µM", "setting": "ROCK-II(h) (human)", "result": 2, "unit": "%"},
      {"measurement": "% activity, 100 µM", "setting": "SGK(h) (human)", "result": 2, "unit": "%"},
      {"measurement": "% activity, 100 µM", "setting": "STK33(h) (human)", "result": 16, "unit": "%"},
      {"measurement": "% activity, 100 µM", "setting": "Syk(h) (human)", "result": 5, "unit": "%"},
      {"measurement": "% activity, 100 µM", "setting": "Tie2(Y897S)(h) (human)", "result": 80, "unit": "%"},
      {"measurement": "% activity, 100 µM", "setting": "ULK2(h) (human)", "result": 124, "unit": "%"},
      {"measurement": "% activity, 100 µM", "setting": "c-RAF(h) (human)", "result": 19, "unit": "%"},
      {"measurement": "% activity, 100 µM", "setting": "cKit(h) (human)", "result": 45, "unit": "%"}
    ]}
  ]
}
